Measurements: patent publication US20190225662A1 (VIB VZW, published 2019)

B1: synthetic 17mer peptide, APP695 204-220AA (peptide)
peptide: DDSDVWWGGADTDYADG
notes: also called 17AA stretch
B2: ExD-AcD fragment of APP695 (without Fc) (ligand)
chain: SVDSADAEEDDSDVWWGGADTDYADGGEDKVVEVAEEEEVADVEEEEADDDEDVEDGDEVEEEAEEPYEEATERTTSTATTTTTTTESVEEVVRVPTTAASTPD
notes: also called APP695 ExD-AcD fragment; sAPPα ExD-AcD
B3: sAPPα (Fc cleaved) (ligand)
chain: LEVPTDGNAGLLAEPQIAMFCGKLNMHMNVQNGKWESDPSGTKTCIGTKEGILQYCQEVYPELQITNVVEANQPVTIQNWCKRGRKQCKTHTHIVIPYRCLVGEFVSDALLVPDKCKFLHQERMDVCETHLHWHTVAKETCSEKSTNLHDYGMLLPCGIDKFRGVEFVCCPLAEESDSVDSADAEEDDSDVWWGGADTDYADGGEDKVVEVAEEEEVADVEEEEADDDEDVEDGDEVEEEAEEPYEEATERTTSTATTTTTTTESVEEVVRVPTTAASTPDAVDKYLETPGDENEHAHFQKAKERLEAKHRERMSQVMREWEEAERQAKNLPKADKKAVIQHFQEKVESLEQEAANERQQLVETHMARVEAMLNDRRRLALENYITALQAVPPRPHHVFNMLKKYVRAEQKDRQHTLKHFEHVRMVDPKKAAQIRSQVMTHLRVIYERMNQSLSLLYNVPAVAEEIQDEVDELLQKEQNYSDDVLANMISEPRISYGNDALMPSLTETKTTVELLPVNGEFSLDDLQPWHPFGVDSVPANTENEVEPVDARPAADRGLTTRPGSGLTNIKTEEISEVKMDAEFGHDSGFEVRHQK
notes: Made as an Fc fusion in HEK293 cells; also called soluble amyloid precursor protein α; purified sAPPα
B4: synthetic peptide, APP695 residues 211-220 (peptide)
peptide: GGADTDYADG
B5: Sushi domain 1 of the GABAB1a receptor, purified (receptor)
chain: TSEGCQIIHPPWEGGIRYRGLTRDQVKAINFLPVDYEIEYVCRGEREVVGPKVRKCLANGSWTDMDTPSRCV
notes: also called Sushi 1; sushi1
B6: synthetic 9mer peptide, APP695 residues 204-212 (peptide)
peptide: DDSDVWWGG
notes: also called 204-212AA

Tests used:
[1] = molecular target: B5; assay: ITC, peptide (300 uM) injected into Sushi-1 protein (30 uM), PBS; 17mer peptide, APP695 204-220
Method: (§1) All ITC experiments were carried out on a MicroCal iTC200 system. For ITC experiments involving APP constructs expressed in HEK293 cells, the purified GABABR1a-Sushi1 domain, sAPPα, CuBDAcD, AcD and CuBD constructs were buffer-exchanged by size exclusion chromatography in 20 mM Na-HEPES pH 7.0, 150 mM NaCl supplemented with 5 mM CaCl2. Concentrated samples were diluted and degassed before the experiment at the concentrations reported in the Fig. legends. sAPP fragments (all of them at 30 μM) were placed in the MicroCal sample cell and matching buffer was placed in the reference cell. Sushi1 (300 μM) was in the syringe and was injected into the cell in a series of 1 μL injections at 25° C. All the datasets were subtracted with a reference data consisting of serial injections of Sushi 1 in the cell, containing buffer only under the same conditions. For ITC experiments involving synthetic APP peptides, the Sushi-1 protein was dialysed overnight to PBS buffer. The 17-mer peptide was resuspended in H2O:acetonitrile (5:1) at a stock concentration of 3 mM, and diluted in PBS to 300 uM. In order to avoid buffer-buffer mismatches, the same amount of H2O:acetonitrile mixture was also added when diluting the protein to a 30 uM concentration. The 9-mer peptide was resuspended in PBS. Titrations comprised 26×1.5 μL injections of peptide into the protein, with 90 s intervals. […]

[2] = molecular target: B5; assay: ITC of the synthetic peptide with purified sushi 1 (peptide injected into the protein); N is the fitted stoichiometry
Method: as §1

[3] = molecular target: B5; assay: ITC with purified sushi 1
Method: as §1

[4] = molecular target: B5; assay: ITC, sushi1 (300 µM) injected into ExD-AcD (30 µM); N is the fitted stoichiometry on the Molar Ratio axis
Method: as §1

[5] = molecular target: B5; assay: ITC, sushi1 (300 µM) injected into sAPPα (30 µM); N is the fitted stoichiometry on the Molar Ratio axis
Method: as §1

[6] = molecular target: B5; assay: ITC of the synthetic peptide … (211-220) with purified sushi 1
Method: as §1

[7] = molecular target: B2; assay: ITC, sushi1 (300 µM) injected into ExD-AcD (30 µM)
Method: as §1

[8] = molecular target: B3; assay: ITC, Sushi1 (300 µM) injected into sAPPα (30 µM), 25° C.
Method: as §1

Binder: B1
Kd [1]: 810 nM
N [2]: 0.72

Binder: B2
molar ratio [3]: ~1
N [4]: 1.16

Binder: B3
N [5]: 1.12

Binder: B4
binding result [6]: no binding

Binder: B5
Kd [7]: 621 nM
Kd [8]: 431 nM

Binder: B6
N [2]: 0.96
